Each block holds one substance with its values, some of them ahead of it.
What was measured:
Src tyrosine kinase [1] = assay: steady-state kinetics, radioactive kinase assay; ATP-binding site
Lck [2] = assay: as above
Src tyrosine kinase [3] = assay: steady-state kinetics, radioactive kinase assay; ATP-binding site of Src
Lck [4] = assay: steady-state kinetics, ATP-binding site, after UV exposure
Src tyrosine kinase [5] = assay: steady-state kinetics, Ki against Km of ATP
Lck [6] = assay: steady-state kinetics, radioactive kinase assay; ATP-binding site of Lck
Lck [7] = assay: steady-state kinetics, radioactive kinase assay
Src tyrosine kinase [8] = assay: radioactive Src kinase assay, catalytic activity inhibition

Chain of Lck (D3DPP8 whole entry): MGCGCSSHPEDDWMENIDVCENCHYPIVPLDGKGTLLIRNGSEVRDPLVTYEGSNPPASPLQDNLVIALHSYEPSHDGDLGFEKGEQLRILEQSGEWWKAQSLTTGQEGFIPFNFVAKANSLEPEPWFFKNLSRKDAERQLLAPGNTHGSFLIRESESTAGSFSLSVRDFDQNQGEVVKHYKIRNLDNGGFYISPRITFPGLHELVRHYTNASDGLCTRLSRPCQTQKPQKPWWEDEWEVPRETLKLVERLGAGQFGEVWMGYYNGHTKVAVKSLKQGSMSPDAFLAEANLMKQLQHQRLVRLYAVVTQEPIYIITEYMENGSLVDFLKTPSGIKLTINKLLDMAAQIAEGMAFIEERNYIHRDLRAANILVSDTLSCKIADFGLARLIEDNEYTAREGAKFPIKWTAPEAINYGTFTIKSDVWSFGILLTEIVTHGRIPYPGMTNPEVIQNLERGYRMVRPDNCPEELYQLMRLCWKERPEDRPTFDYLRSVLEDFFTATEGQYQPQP

- Ki (Src tyrosine kinase [1]): 2.7 µM
- Ki (Lck [2]): 30 µM
- Ki (Src tyrosine kinase [3]): 1.7 to 2.6 µM
- Ki (Lck [4]): 29.8 µM
Substance: ATP-1,13-Trioxa-SA-pTyr-γ-p-azidoGlu-Glu-Ile-OH (7) (peptide)

- fold more potent than ATP alone (Src tyrosine kinase [5]): 44 fold
- Ki (Lck [6]): 25.3 µM
- fold better binding affinity than ATP (Lck [7]): 3.9 fold
Substance: ATP-1,13-Trioxa-Suc-pTyr-Glu-Glu-Ile-OH (5) (peptide)

- Ki (Src tyrosine kinase [8]): 608 µM
Substance: H2N-1,13-Trioxa-Suc-pTyr-Glu-Glu-Ile-OH (16) (peptide)

Reference: patent US20110034670A1
